Results from patent US20220340685A1, “COMBINATION THERAPY WITH ENTPD2 AND CD73 ANTIBODIES” (Novartis AG, priority 2019, published 2022).

Legend:
[1] = target: T1, recombinant human ENTPD2 (residues 29-462) (Homo sapiens, UniProt Q9Y5L3); test: Biochemical human ENTPD2 functional assay (Transcreener ADP2 TR-FRET)
T1 construct: residues 29-462 of human or cyno ENTPD2; GP67 signal peptide (N); made in house; host or cells: High Five (Trichoplusia ni) insect cells, baculovirus
T1 sequence (Q9Y5L3 29-462): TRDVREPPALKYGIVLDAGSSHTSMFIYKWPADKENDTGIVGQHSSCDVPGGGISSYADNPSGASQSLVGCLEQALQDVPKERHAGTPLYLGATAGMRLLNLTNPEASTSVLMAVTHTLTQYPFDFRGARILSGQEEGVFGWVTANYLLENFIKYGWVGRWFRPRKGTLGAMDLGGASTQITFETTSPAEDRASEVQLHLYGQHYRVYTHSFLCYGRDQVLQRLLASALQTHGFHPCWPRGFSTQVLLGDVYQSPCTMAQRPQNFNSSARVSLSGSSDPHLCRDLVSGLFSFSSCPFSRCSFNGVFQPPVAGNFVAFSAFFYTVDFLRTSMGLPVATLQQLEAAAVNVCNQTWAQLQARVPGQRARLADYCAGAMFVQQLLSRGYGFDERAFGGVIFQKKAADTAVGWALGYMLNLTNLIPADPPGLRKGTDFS
Text: Biochemical and cell-based functional assays were developed in-house to understand functional impact of anti-ENTPD2 Abs against purified extracellular domain of ENTPD2 (residues 29-462), as well as against the fully intact protein in the context of the native cell-based conformation. ENTPD2 hydrolyzes ATP to ADP, which can subsequently be detected using the HTRF Transcreener ADP2 TR-FRET Red Assay (BellBrook Labs, Madison, Wis.) where ENTPD2-produced ADP would compete with the ADP Tracer for binding to the anti-ADP-Tb antibody. The resulting signal is inversely proportional to the concentration of ADP in the sample. […]
HTRF signal (Emission at 620 nm and 665 nm) was assessed in both assays using the Envision plate reader in HTRF mode (Perkin Elmer, Waltham, Mass.). HTRF ratio was determined using the following formula: HTRF ratio=R=Emission at 665 nm/Emission at 620 nm×10,000. Subsequently % Residual Activity and % Inhibition were determined as follows:
Where R0% is the HTRF ratio of the negative control (0% enzyme activity), and R100% is the HTRF ratio of the positive control (100% enzyme activity). Data were analyzed in Microsoft Excel and graphed using GraphPad's Prism 7.0 software and IC50 values were obtained using non-linear regression, log (agonist) vs. response-variable slope (four parameters) analysis.

ENTPD2 = target: T2, ENTPD2 (Homo sapiens, UniProt Q9Y5L3); test: Cell-based screen of hybridoma-derived mAbs for inhibition of ATP hydrolysis by ENTPD2
T2 sequence (Q9Y5L3 1-495): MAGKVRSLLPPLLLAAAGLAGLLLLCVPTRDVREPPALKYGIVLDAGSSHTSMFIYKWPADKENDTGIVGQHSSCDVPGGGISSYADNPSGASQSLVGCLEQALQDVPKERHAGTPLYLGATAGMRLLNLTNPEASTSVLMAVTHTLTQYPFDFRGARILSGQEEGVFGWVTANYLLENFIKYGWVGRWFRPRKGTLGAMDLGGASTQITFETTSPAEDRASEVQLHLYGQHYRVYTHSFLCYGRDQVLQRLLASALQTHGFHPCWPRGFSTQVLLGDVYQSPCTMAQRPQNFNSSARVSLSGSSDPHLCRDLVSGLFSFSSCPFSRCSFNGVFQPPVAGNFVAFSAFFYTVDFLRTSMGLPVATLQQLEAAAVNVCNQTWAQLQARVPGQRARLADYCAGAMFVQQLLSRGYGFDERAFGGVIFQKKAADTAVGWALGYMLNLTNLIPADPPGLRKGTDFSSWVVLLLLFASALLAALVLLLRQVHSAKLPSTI
Text: Hybridoma-derived mAbs were screened in a cell-based assay for inhibition of ATP hydrolysis by ENTPD2.

B1: mAb17: hybridoma-derived anti-human ENTPD2 lead inhibitory mAb (chimeric); VH/VL DNA SEQ ID NO: 234/238 (antibody, V domains shown)
VH: EVQLQQFGAELVKPGASVKISCKASGYTFTDYNMDWVKQSHGKSLEWIGDINPKYDISTYNQQFKGKATLTVDKSSSTAYMELRSLTSEDTAVYYCARRGFFLYYGINYYYFDVWGAGTTVTVSS
VL: QIVLTQSPAIMSASLGEEITLTCSASSSVSYIHWYQQKSGTSPTLLIYSTSNLASGVPSRFSGSGSGTFYSLTISSVEAEDAADYYCHQWSSYPWTFGGGTKLEIK
modifications: constant regions not cited
[1]
  inhibition of the catalytic activity of recombinant human ENTPD2: potently inhibit
ENTPD2
  inhibition of ATP hydrolysis by ENTPD2 (screen outcome): lead inhibitory mAbs
